Target: T1, B3GNT2 (Homo sapiens, UniProt Q9NY97)
T1 construct: The respective ORFs of candidate genes [CD274 (NM_014143), MCL1 (NM_021960), JUNB (NM_002229), and B3GNT2 (NM_006577)] were synthesized; expressed in transfected cells; host or cells: A375 melanoma cells (lentiviral ORF overexpression)
T1 sequence (Q9NY97 1-397): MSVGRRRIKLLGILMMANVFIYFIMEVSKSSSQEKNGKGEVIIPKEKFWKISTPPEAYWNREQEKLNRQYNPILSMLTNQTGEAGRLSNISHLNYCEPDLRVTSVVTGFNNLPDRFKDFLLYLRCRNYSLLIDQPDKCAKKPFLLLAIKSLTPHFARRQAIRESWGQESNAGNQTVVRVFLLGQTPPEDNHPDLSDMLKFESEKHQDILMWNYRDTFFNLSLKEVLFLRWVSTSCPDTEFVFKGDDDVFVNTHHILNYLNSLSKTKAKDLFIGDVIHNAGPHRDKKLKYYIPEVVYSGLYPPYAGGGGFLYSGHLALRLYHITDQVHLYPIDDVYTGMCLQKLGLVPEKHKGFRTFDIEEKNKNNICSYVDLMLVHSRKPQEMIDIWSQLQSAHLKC
Experiment: Co-IP of FLAG-tagged B3GNT2 followed by mass spectrometry
Assay type: cell-based
Design: C-term IgG / C-term flag: unit not given here
Procedure: Cells were plated in 10-cm cell culture dishes and grown to 60-80% confluency. For each condition, two biological replicates were harvested for co-IP. Cells were washed with PBS and 4 mL of lysis buffer (20 mM HEPES, 1% Triton X-100, 150 mM NaCl, 1 mM EDTA, and 10% glycerol) containing protease inhibitor cocktail was added. Cells were scraped and lysate was incubated at 4° C. under rotary agitation for 1 h. Lysate was centrifuged at 14,000×g for 10 min at 4° C. Supernatant was transferred to a new tube and an aliquot was taken as the input. […] For Western blots, 10 μg/mL Chicken Anti-FLAG (Aves labs ET-DY100) and IgY control (R&D Systems AB-101-C) antibodies were biotinylated (Thermo Fisher Scientific 90407) and added to the respective conditions. Lysates with antibodies were incubated at 4° C. under rotary agitation overnight. For each mL of lysate, 50 μL of Pierce Protein A/G Magnetic Beads (Mass spectrometry; Thermo Fisher Scientific 88803) or Pierce Streptavidin Magnetic Beads (Western blot; Thermo Fisher Scientific 88817) was washed twice with lysis buffer. Lysates with antibodies were added to the beads and incubated at 4° C. under rotary agitation for 4 h. Beads were washed with lysis buffer 3 times and resuspended in lysis buffer for storage. […] This solution was subjected to solid phase extraction to concentrate the peptides and remove unwanted reagents followed by injection onto a Shimadzu HPLC with fraction collector. Eight fractions were collected and after concentration were injected on a Waters NanoAcquity HPLC equipped with a self-packed Aeris 3 μm C18 analytical column 0.075 mm by 20 cm, (Phenomenex). Peptides were eluted using standard reverse-phase gradients. The effluent from the column was analyzed using a Thermo Orbitrap Elite mass spectrometer (nanospray configuration) operated in a data dependent manner for 54 minutes. […] Scaffold Q+S (Proteome Software) was used to provide consensus reports for the identified proteins.

[1] = Co-IP with FLAG antibody, C-terminally FLAG-tagged B3GNT2, mass spectrometry count, unit not given
[2] = Co-IP with FLAG antibody, N-terminally FLAG-tagged B3GNT2, mass spectrometry count, unit not given
[3] = Co-IP with IgG control antibody, C-terminally FLAG-tagged B3GNT2, mass spectrometry count, unit not given
[4] = Co-IP with IgG control antibody, N-terminally FLAG-tagged B3GNT2, mass spectrometry count, unit not given
[5] = Co-IP followed by mass spectrometry of B3GNT2, C-term tag, FLAG pull-down
[6] = Co-IP followed by mass spectrometry of B3GNT2, C-term tag, IgG pull-down
[7] = Co-IP followed by mass spectrometry of B3GNT2, N-term tag, FLAG pull-down
[8] = Co-IP followed by mass spectrometry of B3GNT2, N-term tag, IgG pull-down

Row | Substance | C-term flag [1] | N-term FLAG [2] | C-term IgG [3] | N-term IgG [4] | C-term flag [5] | C-term IgG [6] | N-term FLAG [7] | N-term IgG [8]
1 | ABCD1 | 2 | 0 | 0 | 0 | – | – | – | –
2 | ABCF1 | 2 | 0 | 0 | 0 | – | – | – | –
3 | AIFM1 | 5 | 5 | 0 | 0 | – | – | – | –
4 | CALU | 13 | 10 | 0 | 0 | – | – | – | –
5 | CFL1 | – | – | – | – | 6 | 3 | 5 | 3
6 | CLTC | – | – | – | – | 7 | 5 | 6 | 6
7 | CTSD | 4 | 3 | 0 | 3 | – | – | – | –
8 | DNAJA2 | – | – | – | – | 3 | 0 | 3 | 0
9 | ECPAS | 0 | 3 | 0 | 0 | – | – | – | –
10 | EIF4A1 | 6 | 2 | 0 | 0 | – | – | – | –
11 | EIF4G1 | – | – | – | – | 6 | 2 | 2 | 2
12 | EMD | – | – | – | – | 2 | 2 | 2 | 0
13 | ERLIN2 | 9 | 8 | 0 | 0 | – | – | – | –
14 | FABP5 | 8 | 6 | 0 | 2 | – | – | – | –
15 | FKBP10 | 16 | 0 | 0 | 0 | – | – | – | –
16 | GAPDH | 16 | 18 | 6 | 11 | – | – | – | –
17 | GBF1 | – | – | – | – | 5 | 0 | 0 | 0
18 | GCN1 | 4 | 14 | 0 | 0 | – | – | – | –
19 | HADHA | 2 | 0 | 0 | 0 | – | – | – | –
20 | HBA1 | 4 | 3 | 0 | 3 | – | – | – | –

Row | Substance | C-term flag [1] | N-term FLAG [2] | C-term IgG [3] | N-term IgG [4] | C-term flag [5] | C-term IgG [6] | N-term FLAG [7] | N-term IgG [8]
21 | HBB | – | – | – | – | 0 | 0 | 4 | 0
22 | HDGFL2 | 2 | 0 | 0 | 0 | – | – | – | –
23 | HERC2 | 3 | 0 | 0 | 0 | – | – | – | –
24 | HNRNPA2B1 | – | – | – | – | 8 | 9 | 7 | 4
25 | HNRNPK | – | – | – | – | 12 | 10 | 9 | 8
26 | HNRNPU | – | – | – | – | 12 | 0 | 0 | 2
27 | HSP90AB1 | 11 | 10 | 2 | 0 | – | – | – | –
28 | HSPA5 | 130 | 70 | 12 | 9 | – | – | – | –
29 | HSPB1 | – | – | – | – | 4 | 0 | 3 | 4
30 | HUWE1 | – | – | – | – | 0 | 0 | 3 | 0
31 | IPO13 | 2 | 0 | 0 | 0 | – | – | – | –
32 | KRT4 | – | – | – | – | 37 | 0 | 22 | 21
33 | LARP4 | 2 | 0 | 0 | 0 | – | – | – | –
34 | LRP2 | 2 | 0 | 0 | 0 | – | – | – | –
35 | MAP1B | 2 | 0 | 0 | 0 | – | – | – | –
36 | MON2 | 3 | 0 | 0 | 0 | – | – | – | –
37 | NPM1 | 8 | 0 | 0 | 0 | – | – | – | –
38 | P4HB | 23 | 3 | 0 | 0 | – | – | – | –
39 | P01837.1 | – | – | – | – | 146 | 108 | 89 | 87

The next lines start with the values.

Row | C-term flag [1] | N-term FLAG [2] | C-term IgG [3] | N-term IgG [4] | C-term flag [5] | C-term IgG [6] | N-term FLAG [7] | N-term IgG [8] | Substance
40 | 0 | 3 | 0 | 0 | – | – | – | – | ATM
41 | – | – | – | – | 4 | 0 | 2 | 0 | ATP5F1B
42 | – | – | – | – | 5 | 0 | 0 | 0 | CCT3
43 | 2 | 0 | 0 | 0 | – | – | – | – | CEP170
44 | 12 | 2 | 0 | 0 | – | – | – | – | CSPG4
45 | – | – | – | – | 5 | 0 | 0 | 0 | DHX9
46 | 10 | 6 | 0 | 0 | – | – | – | – | DNAJA1
47 | 2 | 0 | 0 | 0 | – | – | – | – | ELOC
48 | 4 | 5 | 2 | 2 | – | – | – | – | ENO1
49 | 4 | 3 | 0 | 0 | – | – | – | – | EPRS
50 | 0 | 2 | 0 | 0 | – | – | – | – | ERP29
51 | – | – | – | – | 22 | 15 | 29 | 20 | FLG
52 | 2 | 0 | 0 | 0 | – | – | – | – | GALNT2
53 | 56 | 9 | 0 | 0 | – | – | – | – | HSP90B1
54 | – | – | – | – | 49 | 15 | 41 | 16 | HSPA8
55 | – | – | – | – | 3 | 0 | 3 | 0 | ITGB3
56 | 2 | 0 | 0 | 0 | – | – | – | – | LAMB1
57 | – | – | – | – | 4 | 0 | 0 | 0 | LAMC1
58 | – | – | – | – | 11 | 6 | 11 | 9 | LCN1
59 | – | – | – | – | 4 | 3 | 7 | 4 | LGALS7B
60 | 6 | 3 | 0 | 4 | – | – | – | – | LYZ
61 | – | – | – | – | 7 | 5 | 2 | 3 | MYH11
